Source: publication PMC1807962 (Nucleic Acids Research, 2007)
Where “and” joins values, the source holds several entries; their conditions need not be identical. Equal values may be shown once.

Key:
Assay in all cases: SEC
[1] = molecular target: Sso MCM ▵A/HTH (lacking both the A domain and the HTH domain) (Sulfolobus solfataricus)
[2] = molecular target: Sso MCM C-half (C-terminal half, AAA+ and HTH domains) (Sulfolobus solfataricus)
[3] = molecular target: Sso MCM AAA+ core domain (Sulfolobus solfataricus)
[4] = molecular target: Sso MCM ▵A (lacking the N-terminal A domain) (Sulfolobus solfataricus)
[5] = molecular target: the molecule itself

Molecule: Sso MCM ▵A/HTH (lacking both the A domain and the HTH domain) (domain or fragment)
- stoichiometry N [1]: 6

Molecule: Sso MCM C-half (C-terminal half, AAA+ and HTH domains) (domain or fragment)
- stoichiometry N [2]: 2

Molecule: Sso MCM AAA+ core domain (domain or fragment)
- stoichiometry N [3]: 2

Molecule: Sso MCM ▵A (lacking the N-terminal A domain) (domain or fragment)
- stoichiometry N [4]: 6

B1: Sulfolobus solfataricus MCM, full-length, wild-type (natural protein)
chain: MEIPSKQIDYRDVFIEFLTTFKGNNNQNKYIERINELVAYRKKSLIIEFSDVLSFNENLAYEIINNTKIILPILEGALYDHILQLDPTYQRDIEKVHVRIVGIPRVIELRKIRSTDIGKLITIDGILVKVTPVKERIYKATYKHIHPDCMQEFEWPEDEEMPEVLEMPTICPKCGKPGQFRLIPEKTKLIDWQKAVIQERPEEVPSGQLPRQLEIILEDDLVDSARPGDRVKVTGILDIKQDSPVKRGSRAVFDIYMKVSSIEVSQKVLDEVIISEEDEKKIKDLAKDPWIRDRIISSIAPSIYGHWELKEALALALFGGVPKVLEDTRIRGDIHILIIGDPGTAKSQMLQFISRVAPRAVYTTGKGSTAAGLTAAVVREKGTGEYYLEAGALVLADGGIAVIDEIDKMRDEDRVAIHEAMEQQTVSIAKAGIVAKLNARAAVIAAGNPKFGRYISERPVSDNINLPPTILSRFDLIFILKDQPGEQDRELANYILDVHSGKSTKNIIDIDTLRKYIAYARKYVTPKITSEAKNLITDFFVEMRKKSSETPDSPILITPRQLEALIRISEAYAKMALKAEVTREDAERAINIMRLFLESVGVDMESGKIDIDTIMTGKPKSAREKMMKIIEIIDSLAVSSECAKVKDILKEAQQVGIEKSNIEKLLTDMRKSGIIYEAKPECYKKV
- stoichiometry N [5]: ≤ 12 and 6
